Test results: patent US6500417 (DSM N V, dated 2002)
Numbering of substitutions follows the chain as printed.

B1: hIL-3 deletion mutant 935 (deletion 60-70) (ligand)
chain: APMTQTTPLKTSWVNCSNMIDEIITHLKQPPLPLLDFNNLNGEDQDILMENNLRRPNLEASAIESILKNLLPCLPLATAAPTRHPIHIKDGDWNEFRRKLTFYLKTLENAQAQQTTLSLAIF
notes: not shown: heterologous N-terminal leader of the E. coli fusion (pGB/IL-336: 12 aa; pGB/IL-339: 15 aa)
B2: hIL-3 deletion mutant 821 (deletion 94-102) (ligand)
chain: APMTQTTPLKTSWVNCSNMIDEIITHLKQPPLPLLDFNNLNGEDQDILMENNLRRPNLEAFNRAVKSLQNASAIESILKNLLPCLPLATAAPTDWNEFRRKLTFYLKTLENAQAQQTTLSLAIF
notes: as for B1
B3: hIL-3 deletion mutant 938 (deletion 103-111) (ligand)
chain: B2 chain with D94R, W95H, N96P, E97I, F98H, R99I, R100K, K101D, L102G
notes: as for B1
B4: hIL-3 deletion mutant 934 (deletion 47-54) (ligand)
chain: APMTQTTPLKTSWVNCSNMIDEIITHLKQPPLPLLDFNNLNGEDQDRPNLEAFNRAVKSLQNASAIESILKNLLPCLPLATAAPTRHPIHIKDGDWNEFRRKLTFYLKTLENAQAQQTTLSLAIF
notes: as for B1
B5: hIL-3 deletion mutant 936 (deletion 76-83) (ligand)
chain: APMTQTTPLKTSWVNCSNMIDEIITHLKQPPLPLLDFNNLNGEDQDILMENNLRRPNLEAFNRAVKSLQNASAIECLPLATAAPTRHPIHIKDGDWNEFRRKLTFYLKTLENAQAQQTTLSLAIF
notes: as for B1
B6: hIL-3 deletion mutant 820 (deletion 85-90) (ligand)
chain: APMTQTTPLKTSWVNCSNMIDEIITHLKQPPLPLLDFNNLNGEDQDILMENNLRRPNLEAFNRAVKSLQNASAIESILKNLLPCAPTRHPIHIKDGDWNEFRRKLTFYLKTLENAQAQQTTLSLAIF
notes: as for B1
B7: hIL-3 substitution mutant 1481 (Glu43Asp44→Lys43Arg44) (ligand)
chain: APMTQTTPLKTSWVNCSNMIDEIITHLKQPPLPLLDFNNLNGKRQDILMENNLRRPNLEAFNRAVKSLQNASAIESILKNLLPCLPLATAAPTRHPIHIKDGDWNEFRRKLTFYLKTLENAQAQQTTLSLAIF
notes: also called 43ED→KR; not shown: heterologous N-terminal leader of the E. coli fusion (pGB/IL-336: 12 aa; pGB/IL-339: 15 aa)
B8: hIL-3 substitution mutant 1493 (Phe113Tyr114→Ala113Thr114) (ligand)
chain: B7 chain with K43E, R44D, F113A, Y114T
notes: also called 113FY → AT; not shown: heterologous N-terminal leader of the E. coli fusion (pGB/IL-336: 12 aa; pGB/IL-339: 15 aa)
B9: hIL-3 deletion mutant 937 (deletion 89-95) (ligand)
chain: APMTQTTPLKTSWVNCSNMIDEIITHLKQPPLPLLDFNNLNGEDQDILMENNLRRPNLEAFNRAVKSLQNASAIESILKNLLPCLPLAPIHIKDGDWNEFRRKLTFYLKTLENAQAQQTTLSLAIF
notes: as for B1
B10: hIL-3 deletion mutant 810 (deletion 20-30) (ligand)
chain: APMTQTTPLKTSWVNCSNMPLPLLDFNNLNGEDQDILMENNLRRPNLEAFNRAVKSLQNASAIESILKNLLPCLPLATAAPTRHPIHIKDGDWNEFRRKLTFYLKTLENAQAQQTTLSLAIF
notes: also called 4810; not shown: heterologous N-terminal leader of the E. coli fusion (pGB/IL-336: 12 aa; pGB/IL-339: 15 aa)
B11: pGB/IL-336 IL-3 fusion protein (ligand)
chain: MTMITNSRGSVDAPMTQTTPLKTSWVNCSNMIDEIITHLKQPPLPLLDFNNLNGEDQDILMENNLRRPNLEAFNRAVKSLQNASAIESILKNLLPCLPLATAAPTRHPIHIKDGDWNEFRRKLTFYLKTLENAQAQQTTLSLAIF
B12: hIL-3 deletion mutant 811 (deletion 31-49) (ligand)
chain: APMTQTTPLKTSWVNCSNMIDEIITHLKQPENNLRRPNLEAFNRAVKSLQNASAIESILKNLLPCLPLATAAPTRHPIHIKDGDWNEFRRKLTFYLKTLENAQAQQTTLSLAIF
notes: expressed in Bacillus, lacks a leader
B13: hIL-3 deletion mutant 812 (deletion 54-61) (ligand)
chain: B4 chain with R47I, P48L, N49M, L50E, E51N, A52N, F53L
notes: as for B1
B14: hIL-3 combination deletion mutant Z (deletions 1-14/116-133) (ligand)
chain: NCSNMIDEIITHLKQPPLPLLDFNNLNGEDQDILMENNLRRPNLEAFNRAVKSLQNASAIESILKNLLPCLPLATAAPTRHPIHIKDGDWNEFRRKLTFYL
notes: as for B12
B15: hIL-3 combination deletion mutant X (deletions 1-14/120-133) (ligand)
chain: NCSNMIDEIITHLKQPPLPLLDFNNLNGEDQDILMENNLRRPNLEAFNRAVKSLQNASAIESILKNLLPCLPLATAAPTRHPIHIKDGDWNEFRRKLTFYLKTLE
notes: as for B12
B16: hIL-3 substitution mutant 1488 (Lys79→Glu79) (ligand)
chain: B7 chain with K43E, R44D, K79E
notes: also called 79K → E; not shown: heterologous N-terminal leader of the E. coli fusion (pGB/IL-336: 12 aa; pGB/IL-339: 15 aa)
B17: hIL-3 double cysteine mutant 9045 (Cys16Cys84→Ala16Ala84) (ligand)
chain: B7 chain with C16A, K43E, R44D, C84A
notes: also called 16/84C → A; not shown: heterologous N-terminal leader of the E. coli fusion (pGB/IL-336: 12 aa; pGB/IL-339: 15 aa)
B18: hIL-3 substitution mutant 1486 (Arg63Ala64→Pro63Gly64) (ligand)
chain: B7 chain with K43E, R44D, R63P, A64G
notes: also called 63RA → PG; not shown: heterologous N-terminal leader of the E. coli fusion (pGB/IL-336: 12 aa; pGB/IL-339: 15 aa)
B19: hIL-3 substitution mutant 1492 (Arg108Arg109Lys110→Glu108Asp109Glu110) (ligand)
chain: B7 chain with K43E, R44D, R108E, R109D, K110E
notes: also called 108RRK → EDE; not shown: heterologous N-terminal leader of the E. coli fusion (pGB/IL-336: 12 aa; pGB/IL-339: 15 aa)
B20: hIL-3 substitution mutant 904 (Cys16→Ala16) (ligand)
chain: B7 chain with C16A, K43E, R44D
notes: also called 16C → A; not shown: heterologous N-terminal leader of the E. coli fusion (pGB/IL-336: 12 aa; pGB/IL-339: 15 aa)
B21: hIL-3 substitution mutant 905 (Cys84→Ala84) (ligand)
chain: B7 chain with K43E, R44D, C84A
notes: also called 84C → A; not shown: heterologous N-terminal leader of the E. coli fusion (pGB/IL-336: 12 aa; pGB/IL-339: 15 aa)
B22: hIL-3 substitution mutant 1483 (Glu50→Lys50) (ligand)
chain: B7 chain with K43E, R44D, E50K
notes: also called 50E → K; not shown: heterologous N-terminal leader of the E. coli fusion (pGB/IL-336: 12 aa; pGB/IL-339: 15 aa)
B23: hIL-3 substitution mutant 1484 (Arg54Arg55→Glu54Asp55) (ligand)
chain: B7 chain with K43E, R44D, R54E, R55D
notes: also called 54RR → ED; not shown: heterologous N-terminal leader of the E. coli fusion (pGB/IL-336: 12 aa; pGB/IL-339: 15 aa)
B24: hIL-3 deletion mutant 933 (deletion 29-37) (ligand)
chain: APMTQTTPLKTSWVNCSNMIDEIITHLKNNLNGEDQDILMENNLRRPNLEAFNRAVKSLQNASAIESILKNLLPCLPLATAAPTRHPIHIKDGDWNEFRRKLTFYLKTLENAQAQQTTLSLAIF
notes: as for B12
B25: hIL-3 deletion mutant 822 (deletion 107-119) (ligand)
chain: APMTQTTPLKTSWVNCSNMIDEIITHLKQPPLPLLDFNNLNGEDQDILMENNLRRPNLEAFNRAVKSLQNASAIESILKNLLPCLPLATAAPTRHPIHIKDGDWNENAQAQQTTLSLAIF
notes: as for B1
B26: reference IL-3 preparation (B. licheniformis, full-length IL-3 cDNA in pGB/IL-322) (ligand)
chain: B7 chain with K43E, R44D
modifications: radiolabeled with the Bolton-Hunter reagent when used as tracer

Molecular target: T1, IL-3 receptor (human, UniProt P26951 19-378; P32927 17-897)
T1 construct: whole, on cells; also called ILK3 receptor
Experiment: competition with radiolabeled IL-3 for binding to cells; NC: No competition was observed for the particular mutein preparation
Experimental: (§1) An ILK3 receptor binding assay was performed with purified recombinant hIL-3 (see EPA 0390252) was radiolabeled with the Bolton-Hunter reagent (as described by Budel et al., Blood 74 (1989) 565–571). The specific activity was estimated at 80,000 cpm/ng of IL-3. As target, either donor leukocytes, patient AML cells, or MV4-11 (ATCC: CRL-9591) cells were used. Cells were washed in Hanks Balanced Salt solution and suspended in Alpha-MEM plus 1% BSA. Usually, 3–10×10⁶ cells were incubated with 200–300 pM of radiolabeled IL-3 and various concentrations of unlabeled mutant protein in a total volume of 200 µl for 1 hr at 37° C. Cell-bound labeled IL-3 was centrifuged for 10 min at 1000×g at 4° C. through a 0.5 ml cushion of bovine calf serum in an Eppendorf tube (Budel et al., 1989). The tubes were frozen in liquid nitrogen and the tips cut off for counting in a Packard gamma counter. Competition binding was determined relative to the reference preparation. […] Radiolabeled IL-3 binding to patient AML blasts is competed with unlabeled IL-3 protein (reference preparation). Due to the low number of receptors (less than 200) on the target cells, data for competition mostly varied by one order of magnitude.

T1 sequence (P26951 19-378, chain 1 of 2): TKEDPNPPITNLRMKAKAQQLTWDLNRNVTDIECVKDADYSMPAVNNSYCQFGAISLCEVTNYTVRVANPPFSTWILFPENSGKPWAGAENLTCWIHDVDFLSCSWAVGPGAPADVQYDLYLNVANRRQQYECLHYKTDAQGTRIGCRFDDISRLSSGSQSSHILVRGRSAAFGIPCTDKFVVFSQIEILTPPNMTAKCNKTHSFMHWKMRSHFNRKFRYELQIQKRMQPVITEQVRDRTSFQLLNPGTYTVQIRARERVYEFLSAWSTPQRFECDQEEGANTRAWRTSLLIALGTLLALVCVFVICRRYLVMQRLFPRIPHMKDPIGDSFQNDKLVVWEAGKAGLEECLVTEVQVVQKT
T1 sequence (P32927 17-897, chain 2 of 2): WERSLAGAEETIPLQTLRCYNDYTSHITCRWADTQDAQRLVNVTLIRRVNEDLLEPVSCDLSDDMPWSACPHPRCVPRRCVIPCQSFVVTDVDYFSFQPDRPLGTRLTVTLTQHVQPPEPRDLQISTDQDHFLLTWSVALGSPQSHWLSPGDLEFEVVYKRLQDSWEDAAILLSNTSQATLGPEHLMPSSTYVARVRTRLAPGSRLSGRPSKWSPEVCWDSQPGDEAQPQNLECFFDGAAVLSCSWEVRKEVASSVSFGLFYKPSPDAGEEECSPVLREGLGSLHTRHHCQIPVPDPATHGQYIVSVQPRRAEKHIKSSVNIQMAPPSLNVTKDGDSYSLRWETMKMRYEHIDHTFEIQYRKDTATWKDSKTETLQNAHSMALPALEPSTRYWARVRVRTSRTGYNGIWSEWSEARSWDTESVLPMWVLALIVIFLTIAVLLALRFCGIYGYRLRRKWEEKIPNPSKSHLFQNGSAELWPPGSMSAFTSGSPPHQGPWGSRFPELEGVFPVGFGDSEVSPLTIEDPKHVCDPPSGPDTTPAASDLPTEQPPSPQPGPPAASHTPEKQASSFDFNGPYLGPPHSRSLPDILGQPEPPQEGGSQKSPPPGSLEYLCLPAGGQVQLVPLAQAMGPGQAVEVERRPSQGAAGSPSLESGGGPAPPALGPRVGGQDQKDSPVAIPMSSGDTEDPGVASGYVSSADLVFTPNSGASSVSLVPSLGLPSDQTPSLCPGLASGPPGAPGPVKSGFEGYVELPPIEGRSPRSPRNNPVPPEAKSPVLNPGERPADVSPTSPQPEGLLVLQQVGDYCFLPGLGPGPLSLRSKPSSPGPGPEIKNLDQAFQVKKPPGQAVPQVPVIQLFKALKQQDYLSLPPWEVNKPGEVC

B1: no binding.
B2: no binding.
B3: no binding.
B4: no binding.
B5: no binding.
B6: no binding.
B7: no binding.
B8: no binding.
B9: no binding.

Molecular target: T1, IL-3 receptor
Experiment: competition with radiolabeled hIL-3 for binding to cells, relative to reference IL-3
Experimental: as §1

First: B10
Second: B11
The “relative antagonistic potential (relative receptor binding activity / relative biological activity)” value of the first is higher: 2.4 for the first, 1.1 for the second.

Compared with B12, B13 is lower in “relative antagonistic potential (relative receptor binding activity / relative biological activity)” value: 1.6 for the first, 1.2 for the second.

First: B14
Second: B15
The “relative antagonistic potential (relative receptor binding activity / relative biological activity)” value of the first is lower: 1.6 for the first, 8.9 for the second.

First: B16
Second: B17
The “relative antagonistic potential (relative receptor binding activity / relative biological activity)” value of the first is lower: 65 for the first, 88 for the second.

First: B18
Second: B19
The “relative antagonistic potential (relative receptor binding activity / relative biological activity)” value of the first is higher: 14 for the first, 2 for the second.

First: B20
Second: B21
The “relative antagonistic potential (relative receptor binding activity / relative biological activity)” value of the first is higher: 100 for the first, 11 for the second.

Compared with B22, B23 is lower in “relative antagonistic potential (relative receptor binding activity / relative biological activity)” value: 37 for the first, 3.5 for the second.

Compared with B24, B25 is higher in “relative antagonistic potential (relative receptor binding activity / relative biological activity)” value: 1.1 for the first, 1.9 for the second.

Molecular target: T1, IL-3 receptor
Experiment: cell-based or functional assay

First: B1
Second: B10
The “REL. SPEC. BIOLOGICAL ACTIVITY (DNA synthesis of AML193 cells)” value (“REL. SPEC. BIOLOGICAL ACTIVITY” below) of the first is lower: 1.2e-05 relative to reference IL-3 for the first, 0.0021 relative to reference IL-3 for the second.

First: B11
Second: B12
The “REL. SPEC. BIOLOGICAL ACTIVITY” value of the first is higher: 0.79 relative to reference IL-3 for the first, 0.0048 relative to reference IL-3 for the second.

First: B2
Second: B3
The “REL. SPEC. BIOLOGICAL ACTIVITY” value of the first is lower: 1.8e-05 relative to reference IL-3 for the first, 6.6e-05 relative to reference IL-3 for the second.

First: B13
Second: B4
The “REL. SPEC. BIOLOGICAL ACTIVITY” value of the first is lower: 5.3e-05 relative to reference IL-3 for the first, 7.3e-05 relative to reference IL-3 for the second.

Compared with B5, B6 is higher in “REL. SPEC. BIOLOGICAL ACTIVITY” value: 6.4e-06 relative to reference IL-3 for the first, 1.1e-05 relative to reference IL-3 for the second.

Compared with B14, B15 is higher in “REL. SPEC. BIOLOGICAL ACTIVITY” value: 0.11 relative to reference IL-3 for the first, 0.23 relative to reference IL-3 for the second.

First: B26
Second: B16
The “REL. SPEC. BIOLOGICAL ACTIVITY” value of the first is higher: 1 relative to reference IL-3 for the first, 0.0019 relative to reference IL-3 for the second.

First: B17
Second: B18
The “REL. SPEC. BIOLOGICAL ACTIVITY” value of the first is higher: 0.00031 relative to reference IL-3 for the first, 9.8e-05 relative to reference IL-3 for the second.

B7 and B19 cannot be ordered by “REL. SPEC. BIOLOGICAL ACTIVITY” value: < 0.00015 relative to reference IL-3 for the first, 3.1e-05 relative to reference IL-3 for the second.

First: B20
Second: B21
The “REL. SPEC. BIOLOGICAL ACTIVITY” value of the first is higher: 0.00024 relative to reference IL-3 for the first, 0.00019 relative to reference IL-3 for the second.

First: B22
Second: B8
The “REL. SPEC. BIOLOGICAL ACTIVITY” value of the first is higher: 0.0027 relative to reference IL-3 for the first, < 1.2e-05 relative to reference IL-3 for the second.

First: B23
Second: B24
The “REL. SPEC. BIOLOGICAL ACTIVITY” value of the first is lower: 8e-05 relative to reference IL-3 for the first, 0.0057 relative to reference IL-3 for the second.

First: B25
Second: B9
The “REL. SPEC. BIOLOGICAL ACTIVITY” value of the first is higher: 0.00021 relative to reference IL-3 for the first, 1e-05 relative to reference IL-3 for the second.
